# Results from article PMC11408154, “Anti-mutagenic agent targeting LexA to combat antimicrobial resistance in mycobacteria” (The Journal of Biological Chemistry, 2024).
# Molecular target: the molecule itself
# Assay: cross-linking; glutaraldehyde cross-linking of Mtb LexA with or without 3-nPBA (protein to inhibitor 1:100); stopped with 25 mM DTT; 12% SDS-PAGE
protein,measurement,value
"Mycobacterium tuberculosis LexA (natural protein, also called Mtb LexA; WT Mtb LexA) MNDSNDTSVAGGAAGADSRVLSADSALTERQRTILDVIRASVTSRGYPPSIREIGDAVGLTSTSSVAHQLRTLERKGYLRRDPNRPRAVNVRGADDAALPPVTEVAGSDALPEPTFVPVLGRIAAGGPILAEEAVEDVFPLPRELVGEGTLFLLKVIGDSMVEAAICDGDWVVVRQQNVADNGDIVAAMIDGEATVKTFKRAGGQVWLMPHNPAFDPIPGNDATVLGKVVTVIRKV",binding result,binds
